Test results taken from article PMC7144947.
Like-named read-outs stand apart in the source and are kept apart here.

Columns and labels:
[1] = biological target: T1, Sox2-ΔRBM (Mus musculus, UniProt P48432 1-319, del121-180); test: in vitro RIP
[2] = biological target: Sox2-HMG (Mus musculus, UniProt P48432 41-120); test: competition
[3] = biological target: T1, Sox2-ΔRBM; test: competition
[4] = biological target: T2, Sox2-ΔHMG (Mus musculus, UniProt P48432 1-319, del41-118); test: competition
[5] = biological target: T2, Sox2-ΔHMG; test: EMSA
[6] = biological target: Sox2(120-319) (Mus musculus, UniProt P48432 120-319); test: EMSA
[7] = biological target: Sox11 (UniProt Q7M6Y2 1-395); test: EMSA
[8] = biological target: Sox2(180-319) (Mus musculus, UniProt P48432 180-319); test: EMSA
[9] = biological target: T3, Sox2 (Mus musculus, UniProt P48432 1-319); test: EMSA
[10] = biological target: T3, Sox2; test: EMSA; remark: listed apart in the source
[11] = biological target: T1, Sox2-ΔRBM; test: EMSA
[12] = biological target: T1, Sox2-ΔRBM; test: EMSA; remark: listed apart in the source
[13] = biological target: Sox2(1-120) (Mus musculus, UniProt P48432 1-120); test: EMSA
[14] = biological target: Sox2(1-180) (Mus musculus, UniProt P48432 1-180); test: EMSA
[15] = biological target: Sox1 (Mus musculus, UniProt P53783 1-391); test: EMSA
[16] = biological target: T2, Sox2-ΔHMG; test: competition; remark: listed apart in the source

Sequence of Sox11 (Q7M6Y2 whole entry): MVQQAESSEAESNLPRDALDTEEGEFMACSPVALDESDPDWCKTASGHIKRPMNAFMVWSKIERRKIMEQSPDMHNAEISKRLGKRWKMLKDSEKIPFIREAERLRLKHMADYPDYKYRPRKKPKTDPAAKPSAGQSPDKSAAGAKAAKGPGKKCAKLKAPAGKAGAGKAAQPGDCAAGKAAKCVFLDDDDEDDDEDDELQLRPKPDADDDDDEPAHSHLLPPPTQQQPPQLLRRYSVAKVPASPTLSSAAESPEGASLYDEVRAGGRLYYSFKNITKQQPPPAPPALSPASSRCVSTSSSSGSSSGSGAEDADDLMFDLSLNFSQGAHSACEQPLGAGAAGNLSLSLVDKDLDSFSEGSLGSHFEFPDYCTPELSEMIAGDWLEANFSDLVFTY
Sequence of Sox1 (P53783 whole entry): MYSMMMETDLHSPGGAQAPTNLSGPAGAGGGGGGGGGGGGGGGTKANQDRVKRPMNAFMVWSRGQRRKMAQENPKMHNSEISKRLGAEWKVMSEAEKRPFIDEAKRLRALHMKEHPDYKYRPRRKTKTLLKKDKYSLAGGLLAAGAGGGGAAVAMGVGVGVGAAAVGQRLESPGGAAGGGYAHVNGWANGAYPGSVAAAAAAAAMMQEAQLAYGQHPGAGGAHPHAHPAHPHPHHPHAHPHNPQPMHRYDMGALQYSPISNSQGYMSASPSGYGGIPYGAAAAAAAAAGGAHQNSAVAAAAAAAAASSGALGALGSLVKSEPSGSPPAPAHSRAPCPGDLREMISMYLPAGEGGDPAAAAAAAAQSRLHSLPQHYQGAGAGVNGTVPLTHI

B1: 12th-24 Mut3 (ssRNA)
RNA: CGCGGCUUGCCCUAUUAUAGUGUAG
binding result [1]: binds

B2: Prox1 DNA unlabelled (dsDNA)
DNA 1: CTAGCATTGTCTGGG
DNA 2: CCCAGACAATGCTAG
binding result [2]: binds
binding result [3]: binds
binding result [4]: no binding

B3: Dicer1 RNA (ssRNA)
RNA: CCUGCAGCUCAUGACCCCUGCUUCC
binding result [5]: binds
binding result [6]: binds
binding result [7]: no binding
binding result [8]: no binding

B4: 12th-15 RNA (ssRNA)
RNA: GCGGCAAGCCCAUACUCGCGUUCAA
binding result [7]: no binding
binding result [9]: binds

B5: Sox2/Prox1 DNA (dsDNA)
DNA 1: CTAGCATTGTCTGGG
DNA 2: CCCAGACAATGCTAG
binding result [7]: binds
binding result [10]: binds
binding result [11]: binds

B6: Dnmt3b RNA (ssRNA)
RNA: CAGCUUUUCCCUGUAGUCAUGAAUG
binding result [5]: binds
binding result [6]: binds
binding result [7]: no binding
binding result [8]: no binding

B7: 12th-24 RNA (structured_RNA)
RNA: CGCGGCUUGCCCUAUCGCGGUGUAG
binding result [5]: binds
binding result [12]: binds
binding result [13]: binds
binding result [14]: binds
binding result [8]: no binding
binding result [15]: binds
binding result [9]: binds

B8: 12th-24 RNA unlabelled (structured_RNA)
RNA: CGCGGCUUGCCCUAUCGCGGUGUAG
binding result [2]: no binding
binding result [16]: binds
binding result [3]: binds
